B1: Receptor-type tyrosine-protein phosphatase R (Homo sapiens), Q15256 (parent)
chain: MRRAVCFPALCLLLNLHAAGCFSGNNDHFLAINQKKSGKPVFIYKHSQDIEKSLDIAPQKIYRHSYHSSSEAQVSKRHQIVNSAFPRPAYDPSLNLLAMDGQDLEVENLPIPAANVIVVTLQMDVNKLNITLLRIFRQGVAAALGLLPQQVHINRLIGKKNSIELFVSPINRKTGISDALPSEEVLRSLNINVLHQSLSQFGITEVSPEKNVLQGQHEADKIWSKEGFYAVVIFLSIFVIIVTCLMILYRLKERFQLSLRQDKEKNQEIHLSPITLQPALSEAKTVHSMVQPEQAPKVLNVVVDPQGRGAPEIKATTATSVCPSPFKMKPIGLQERRGSNVSLTLDMSSLGNIEPFVSIPTPREKVAMEYLQSASRILTRSQLRDVVASSHLLQSEFMEIPMNFVDPKEIDIPRHGTKNRYKTILPNPLSRVCLRPKNVTDSLSTYINANYIRGYSGKEKAFIATQGPMINTVDDFWQMVWQEDSPVIVMITKLKEKNEKCVLYWPEKRGIYGKVEVLVISVNECDNYTIRNLVLKQGSHTQHVKHYWYTSWPDHKTPDSAQPLLQLMLDVEEDRLASQGRGPVVVHCSAGIGRTGCFIATSIGCQQLKEEGVVDALSIVCQLRMDRGGMVQTSEQYEFVHHALCLYESRLSAETVQ

Variants of: B1
Settings: with mk14_human MAPK14, Q16539
Sequence of mk14_human MAPK14, Q16539 (Q16539 whole entry): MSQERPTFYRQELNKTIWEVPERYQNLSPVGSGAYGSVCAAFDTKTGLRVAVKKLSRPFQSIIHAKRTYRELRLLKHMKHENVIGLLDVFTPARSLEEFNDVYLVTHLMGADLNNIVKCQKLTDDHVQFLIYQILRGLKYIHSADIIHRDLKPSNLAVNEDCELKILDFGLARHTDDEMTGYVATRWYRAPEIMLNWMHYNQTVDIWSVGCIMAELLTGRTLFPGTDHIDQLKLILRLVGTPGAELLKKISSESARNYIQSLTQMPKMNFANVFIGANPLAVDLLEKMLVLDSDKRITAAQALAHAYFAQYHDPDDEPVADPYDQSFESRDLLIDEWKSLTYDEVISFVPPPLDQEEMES

effect of a mutation on the interaction | Variant
disrupting interaction | S339E
